Ends that are not written are not given here. * marks the point of attachment. Biotin = O=C1N[C@H]2[C@H](CS[C@H]2CCCCC(=O)*)N1; Ahx = NCCCCCC(=O)O
Legend:
Biotin.TTR34-54cyc [1] = molecular target: T1, Biotin.TTR34-54cyc (N-terminal Biotin-(Ahx): amino hexanoic acid spacer between the N-terminus and the biotin residue; cyclized via disulfide bridge between the two cysteine residues); assay: ELISA (ELISA-2), plate coated with Biotin.TTR34-54cyc at 10 µg/ml, antibody titrated
T1 construct: Biotinylated form of TTR34-54cyc; also called biotinylated TTR34-54cyc
Method: (§1) In particular, 96-well microplates were coated for 1 hour at 37° C. with TTR34-54cyc, TTR40-49, Biotin. TTR40-449, and mis-WT-TTR (FLISA-1) and with TTR34-54cyc, Biotin. TTR34-54cyc, TTR40-49, Biotin. TTR40-449, and mis-WT-TTR (ELISA-2), respectively, wherein each target antigen has been diluted to a concentration of 10 μg/ml in PBS buffer pH 7.4. Non-specific binding sites were blocked for 1 hour at room temperature (RT) with a blocking buffer containing 2% bovine serum albumin (BSA) and 0.1% tween-20 in PBS buffer. […] Binding was determined using an anti-human IgG antibody conjugated with horseradish peroxidase (HRP), followed by measurement of HRP activity in a standard colorimetric assay (ThermoFisher Scientific Inc., Waltham, Massachusetts, USA). Data were analyzed with the Prism software from GraphPad. ECso values were estimated using non-linear regression of individual data points using log (agonist) versus response model with variable slope. Data fitting was performed with the least square regression method.

[2] = molecular target: T2, cyclic peptide TTR34-54cyc (cyclized via disulfide bridge between two cysteine residues within the poly-glycine stretch); assay: ELISA-1, coated TTR34-54cyc at 10 µg/ml, anti-human IgG-HRP detection
T2 construct: 31 residues: 21 residues of TTR (34-54 of wild type TTR) flanked by the linkers GCGGG and GGGCG; Synthetic (Schafer-N); also called cyclic TTR peptide
Method: as §1

[3] = molecular target: T2, cyclic peptide TTR34-54cyc; assay: cell-based or functional assay
[4] = molecular target: T2, cyclic peptide TTR34-54cyc; assay: ELISA-2, coated TTR34-54cyc at 10 µg/ml, anti-human IgG-HRP detection
Method: as §1

Biotin.TTR34-54cyc [5] = molecular target: T1, Biotin.TTR34-54cyc; assay: ELISA, coated peptide at 10 µg/ml, reference mis.WT-TTR
Method: as §1

[6] = molecular target: T2, cyclic peptide TTR34-54cyc; assay: as above
Method: as §1

[7] = molecular target: fluorescently labeled misfolded TTR aggregates of the monomeric F87M/L110M-TTR mutant (mis.TTR-488) (UniProt P02766 21-147); assay: cell-based or functional assay
[8] = molecular target: T2, cyclic peptide TTR34-54cyc; assay: cell-based or functional assay; remark: listed apart in the source
TTR peptide TTR40-49 = molecular target: T3, TTR peptide TTR40-49; assay: ELISA-1 and ELISA-2, peptide coated at 10 µg/ml, anti-human IgG-HRP detection
T3 peptide: H-TWEPFASGKT-OH
Method: as §1

Biotin.TTR40-49 = molecular target: T4, Biotin.TTR40-49; assay: as above
T4 construct: also called Biotin; TTR40-449; biotinylated TTR peptide TTR40-49
T4 peptide: {Biotin-Ahx}-TWEPFASGKT
Method: as §1

T2 sequence (peptide, as listed by the source): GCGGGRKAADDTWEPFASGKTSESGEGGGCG
T1 sequence (peptide, as listed by the source): as above

B1: anti-TTR antibody NI-301.37F1 (antibody, V domains shown)
VH: QVQLQESGPGLVKPSETLSLTCSVSGGSIISRSSYWGWIRQPPGKGLEWIGGIYHSGNTYDNPSLKSRLTMSVDTSKNQFSLNLRSVTAADTAVYYCARIVPGGDAFDIWGQGTMVTVSS
VL: DIQMTQSPSSLSASVGDRVTIACRASQSVGTYLNWYQQKRGKAPKLLIFAASSLQSGVPSRFSGSGSGTDFTLTISSLQPEDFATYYCQQSYSSPPTFGQGTKVEIK
notes: detected with anti-human IgG; also called 37F1_3
Biotin.TTR34-54cyc [1]
  EC50 (read off the curve): ~0.6 nM
[2]
  EC50: 0.027 nM
[3]
  EC50 (ng/mL) of the FcγR1 ADCP reporter assay, plate coated with TTR34-54cyc; reference sample (RS) 100%, run with the 50% test sample: 19.8 ng/mL
  EC50 (ng/mL) of the FcγR1 ADCP reporter assay, plate coated with TTR34-54cyc; reference sample (RS) 100%, run with the 70% test sample: 19.8 ng/mL
  EC50 (ng/mL) of the FcγR1 ADCP reporter assay, plate coated with TTR34-54cyc; reference sample (RS) 100%, run with the 130% test sample: 17.6 ng/mL
  EC50 (ng/mL) of the FcγR1 ADCP reporter assay, plate coated with TTR34-54cyc; reference sample (RS) 100%, run with the 150% test sample: 19.3 ng/mL
  EC50 (ng/mL) of the FcγR1 ADCP reporter assay, plate coated with TTR34-54cyc; test sample 50% (nominal concentration): 39 ng/mL
  EC50 (ng/mL) of the FcγR1 ADCP reporter assay, plate coated with TTR34-54cyc; test sample 70% (nominal concentration): 30.4 ng/mL
  EC50 (ng/mL) of the FcγR1 ADCP reporter assay, plate coated with TTR34-54cyc; test sample 130% (nominal concentration): 13.6 ng/mL
  EC50 (ng/mL) of the FcγR1 ADCP reporter assay, plate coated with TTR34-54cyc; test sample 150% (nominal concentration): 13.5 ng/mL
[4]
  EC50: 0.66 nM
Biotin.TTR34-54cyc [5]
  fold stronger binding than to mis. WT-TTR: ~10 fold
[6]
  fold stronger binding than to mis. WT-TTR: ~10 fold
[7]
  EC50 of the mis.TTR-488 phagocytosis dose-response in THP1 cells, 0.7x_NI-301.37F1_3 (nominal concentration; sample at 0.7x of the reference): 1.5 nM
  EC50 of the mis.TTR-488 phagocytosis dose-response in THP1 cells, 1x_NI-301.37F1_3: 1.2 nM
  EC50 of the mis.TTR-488 phagocytosis dose-response in THP1 cells, NI-301.37F1_W1 GMP DS: 0.54 nM
  EC50 of the mis.TTR-488 phagocytosis dose-response in THP1 cells, NI-301.37F1_W1 non-GMP DP: 0.92 nM
[8]
  EC50 of the FcγR1 ADCP reporter assay, first experiment (FIG. 11); plate coated with 3 µg/mL TTR34-54cyc, NI-301.37F1 RS dilutions 500-0.4 ng/ml: 0.0198 mg/L
TTR peptide TTR40-49
  binding result: no binding
Biotin.TTR40-49
  binding result: no binding

Source: patent publication US20250035612A1 (NEURIMMUNE, published 2025)
